Experimental data from paper PMC4220969, “Structural basis for the recognition of muramyltripeptide by Helicobacter pylori Csd4, a D,L-carboxypeptidase controlling the helical cell shape” (Acta Crystallographica Section D: Biological Crystallography, 2014).
Where no end group is shown, it is not given here. [ ]: non-standard residue; d: D form. The star is where a group is joined. FITC = O=C1OC2(c3ccc(O)cc3Oc3cc(O)ccc32)c2ccc(NC(=S)*)cc21

Assays:
[1] = target: FITC-labelled dipeptide (FITC-L-Ala-D-Glu); assay: fluorescence polarisation; FITC-labelled dipeptide at 9.2 nM, Csd5 titrated from 17.0 nM to 17.4 µM, 10 mM HEPES pH 7.5, 100 mM sodium chloride
Csd5 = target: T1, Csd5 (Helicobacter pylori, UniProt O25843); assay: fluorescence polarization; assay type: binding; conditions: labelled compound; 9.2 nM FITC-dipeptide, 10 mM HEPES pH 7.5, 100 mM NaCl
T1 construct: gene HP_1250

[2] = target: T2, Helicobacter pylori Csd4 (HP1075 in strain 26695), recombinant, residues Met22-Val438 (Helicobacter pylori strain 26695, UniProt O25708 22-438); assay: SPR; as a1, EDTA-treated Csd4-immobilised chip retreated with running buffer containing 5 mM calcium chloride; conditions: both partners purified
T2 construct: Csd4 (HP1075) from H. pylori strain 26695, residues Met22-Val438; the N-terminal 19 residues are a predicted signal peptide and are not in the construct; No cleavage of the tag is described; also called D,L-carboxypeptidase; source: E. coli Rosetta2(DE3), purified (HiTrap Chelating HP, HiTrap SP HP, Superdex 200)
T2 sequence (looked up): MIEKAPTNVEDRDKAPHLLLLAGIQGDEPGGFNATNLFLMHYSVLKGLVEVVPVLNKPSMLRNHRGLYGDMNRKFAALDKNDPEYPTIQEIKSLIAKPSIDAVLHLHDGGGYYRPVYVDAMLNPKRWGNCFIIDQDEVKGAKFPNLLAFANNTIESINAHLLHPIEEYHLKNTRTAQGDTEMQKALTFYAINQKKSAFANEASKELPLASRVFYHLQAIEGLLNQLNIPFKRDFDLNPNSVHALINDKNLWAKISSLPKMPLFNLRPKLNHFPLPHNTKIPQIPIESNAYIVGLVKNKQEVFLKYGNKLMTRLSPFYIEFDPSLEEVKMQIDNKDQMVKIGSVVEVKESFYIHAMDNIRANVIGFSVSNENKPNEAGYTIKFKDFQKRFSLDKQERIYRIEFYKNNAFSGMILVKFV

[3] = target: T2, Helicobacter pylori Csd4 (HP1075 in …); assay: SPR; Csd4 immobilised by amine coupling on a carboxymethyl dextran chip, Csd5 as analyte (0.25-2.00 µM), 10 mM HEPES pH 7.5, 100 mM sodium chloride, 25°C; BSA reference subtracted; conditions: both partners purified

Helicobacter pylori Csd5 (HP1250 in strain 26695), N-terminal 40-residue-truncated construct, residues Ser41-Glu192 (from UniProt O25843 41-192) (domain or fragment)
Kd [1]: 1690 nM

{FITC}-Ala-[dE]
Kd (Csd5): ~1690 nM

B1: Helicobacter pylori Csd5 (HP1250 in strain 26695), N-terminal 40-residue-truncated construct, residues Ser41-Glu192 (domain or fragment, Helicobacter pylori strain 26695, UniProt O25843 41-192, looked up)
chain: SAPISPNVEKTETERQNGVLSPKQEEANATTTATEESPTKDTAPPLDTAAQKQETKQEQEKENEPKQDSVPPVQNNQKTPTTPLMGKKPLEYKVAVSGVNVRAFPSTKGKILGLLLKNKSVKVLEIQNDWAEIEFSHETKGYVFLKLLKKAE
notes: Csd5 (HP1250) from H. pylori strain 26695, residues Ser41-Glu192; lacks the predicted transmembrane region (Pro15-Val37); No cleavage of the tag is described; source: E. coli, overexpressed and purified essentially as Csd4 (gel filtration in 10 mM HEPES pH 7.5, 100 mM sodium chloride)
Kd [2]: ~4300 nM | Kd [3]: ~4500 nM
